Experimental data reported in US20190016816A1 (APTEVO RESEARCH AND DEVELOPMENT, published 2019).

T1: recombinant human 5T4 extracellular domain (ECD) (human)
T1 construct: Monomeric, made in HEK-293; also called Hu 5T4; monomeric 5T4 ectodomain
T1 chain: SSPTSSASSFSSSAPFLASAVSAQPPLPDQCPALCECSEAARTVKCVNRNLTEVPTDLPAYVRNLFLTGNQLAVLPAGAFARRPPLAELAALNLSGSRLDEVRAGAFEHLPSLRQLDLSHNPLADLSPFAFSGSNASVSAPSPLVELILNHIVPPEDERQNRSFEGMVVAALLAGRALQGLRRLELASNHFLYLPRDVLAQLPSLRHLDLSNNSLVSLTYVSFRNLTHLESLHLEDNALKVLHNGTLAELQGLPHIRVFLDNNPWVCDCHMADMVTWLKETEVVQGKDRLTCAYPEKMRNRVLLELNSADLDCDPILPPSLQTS

T2: human 5T4 on cells (human, UniProt Q13641 32-420)
T2 construct: also called TPBG; hu5T4
T2 sequence: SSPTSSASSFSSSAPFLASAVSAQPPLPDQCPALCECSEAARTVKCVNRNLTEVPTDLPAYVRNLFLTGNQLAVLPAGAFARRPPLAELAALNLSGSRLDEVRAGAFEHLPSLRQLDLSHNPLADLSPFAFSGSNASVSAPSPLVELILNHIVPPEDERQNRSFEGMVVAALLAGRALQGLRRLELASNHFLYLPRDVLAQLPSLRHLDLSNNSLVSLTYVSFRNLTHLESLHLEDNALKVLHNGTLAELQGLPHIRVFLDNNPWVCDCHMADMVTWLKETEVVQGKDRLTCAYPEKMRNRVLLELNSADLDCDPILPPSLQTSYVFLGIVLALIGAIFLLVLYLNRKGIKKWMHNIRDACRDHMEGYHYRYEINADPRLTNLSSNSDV

B1: ALG.APV-210 (bispecific antibody)
chain: EVQLLESGGGLVQPGGSLRLSCAASGFTFSHGSMYWVRQAPGKGLEWVSSISSGSGSTYYADSVKGRFTISHDNSKNTLYLQMNSLRAEDTAVYYCARSSYYGSYYSIDYWGQGTLVTVSSGGGGSGGGGSGGGGSGGGGSDIQMTQSPSSLSASVGDRVTITCRASQSISSYLNWYQQKPGKAPKLLIYAASSLQSGVPSRFSGSGSGTDFTLTISSLQPEDFATYYCQQYYDNLPTFGQGTKLEIKEPKSSDKTHTCPPCPAPEAAGAPSVFLFPPKPKDTLMISRTPEVTCVVVDVSHEDPEVKFNWYVDGVEVHNAKTKPREEQYNSTYRVVSVLTVLHQDWLNGKEYKCAVSNKALPAPIEKTISKAKGQPREPQVYTLPPSRDELTKNQVSLTCLVKGFYPSDIAVEWESNGQPENNYKTTPPVLDSDGSFFLYSKLTVDKSRWQQGNVFSCSVMHEALHNHYTQKSLSLSPGSGGGGSGGGGSGGGGSPSEVQLLESGGGLVQPGGSLRLSCAASGFTFSSYAMSWVRQAPGKCLEWVSAISGSGGSTYYADSVKGRFTISRDNSKNTLYLQMNSLRAEDTAVYYCARYYGGYYSAWMDYWGQGTLVTVSSGGGGSGGGGSGGGGSGGGGSDIQMTQSPSSLSASVGDRVTITCRASQSISSFLNWYQQKPGKAPKLLIYAASSLQSGVPSRFSGSGSGTDFTLTISSLQPEDSATYYCQQTYGYLHTFGCGTKLEIKR
notes: Optimized ADAPTIR scFv-Fc-scFv homodimer with stabilizing disulfide in the 1210 scFv; also called 5T4-CD137 bispecific antibody
B2: biotinylated ALG.APV-210 (bispecific antibody)
chain: B1 chain
notes: also called ALG.APV-210 (biotinylated for FACS detection)
B3: ALG.APV-187 (bispecific antibody)
chain: EVQLLESGGGLVQPGGSLRLSCAASGFTFSHGSMYWVRQAPGKGLEWVSSISSGSGSTYYADSVKGRFTISHDNSKNTLYLQMNSLRAEDTAVYYCARSSYYGSYYSIDYWGQGTLVTVSSGGGGSGGGGSGGGGSGGGGSDIQMTQSPSSLSASVGDRVTITCRASQSISSYLNWYQQKPGKAPKLLIYAASSLQSGVPSRFSGSGSGTDFTLTISSLQPEDFATYYCQQYYDNLPTFGQGTKLEIKSSEPKSSDKTHTCPPCPAPEAAGAPSVFLFPPKPKDTLMISRTPEVTCVVVDVSHEDPEVKFNWYVDGVEVHNAKTKPREEQYNSTYRVVSVLTVLHQDWLNGKEYKCAVSNKALPAPIEKTISKAKGQPREPQVYTLPPSRDELTKNQVSLTCLVKGFYPSDIAVEWESNGQPENNYKTTPPVLDSDGSFFLYSKLTVDKSRWQQGNVFSCSVMHEALHNHYTQKSLSLSPGSGGGGSGGGGSGGGGSPSEVQLLESGGGLVQPGGSLRLSCAASGFTFSSYAMSWVRQAPGKCLEWVSAISGSGGSTYYADSVKGRFTISRDNSKNTLYLQMNSLRAEDTAVYYCARYYGGYYSAWMDYWGQGTLVTVSSGGGGSGGGGSGGGGSGGGGSDIQMTQSPSSLSASVGDRVTITCRASQSISSFLNWYQQKPGKAPKLLIYAASSLQSGVPSRFSGSGSGTDFTLTISSLQPEDSATYYCQQTYGYLHTFGCGTKLEIKR
notes: Optimized ADAPTIR scFv-Fc-scFv homodimer with stabilizing disulfide in the 1210 scFv

Tests used:
[1] = molecular target: T3, recombinant human CD137 extracellular domain (ECD) (human); assay: SPR (Biacore T200, 25 C), bispecific captured on anti-human IgG, monomeric ECD injected, 1:1 fit
T3 construct: Monomeric, made in HEK-293; also called Hu CD137; human 4-1BB ECD
Method: (§1) Goat anti-human IgG F(ab′)2 fragment (Jackson ImmunoResearch) at 20 μg/mL in 10 mM sodium acetate (pH 4.5) was immobilized at a density of 2000 response units (RU) onto the flow cell of a CM5 research-grade sensor chip (GE) by standard amine coupling chemistry. Each bispecific variant at 200 nM in HBS-EP+ buffer was captured in the flow cell with the immobilized anti-human IgG at a flow rate of 50 μL/min for 60 sec to reach ˜500 RU response, leaving one flow cell surface unmodified as the reference. Following a 30 sec stabilization period, four different concentrations of each ECD (0, 20, 60, and 180 nM) were injected at 50 μL/min for either 120 sec followed by a 240 sec dissociation period (for 5T4) or 90 sec followed by a 180 sec dissociation period (for 4-1BB). Regeneration was achieved by duplicate injections of 10 mM glycine (pH 1.5) at a flow rate of 50 μL/min for 30 sec followed by HBS-EP+ buffer stabilization for 1 min.
(§2) Sensorgrams obtained from kinetic SPR measurements were analyzed by the double subtraction method. The signal from the reference flow cell was subtracted from the analyte binding response obtained from flow cells with immobilized or captured ligands. Buffer reference responses were then averaged from multiple injections. The averaged buffer reference responses were then subtracted from analyte binding responses, and the final double-referenced data were analyzed with Biacore T200 Evaluation software (2.0, GE), globally fitting data to derive kinetic parameters. All sensorgrams were fitted using a simple one-to-one binding model.

[2] = molecular target: T1, recombinant human 5T4 extracellular …; assay: as above
Method: as §1, §2

[3] = molecular target: T2, human 5T4 on cells; assay: flow cytometry, SKOV-3 cells, streptavidin-PE, normalized MFI of 2 pooled experiments
Method: Prior to the FACS staining, all cell lines were characterized for their 5T4 expression levels using a receptor density kit (Quantum Simply Cellular, anti-human IgG, Bangs Laboratories, Inc). Adherent cell lines were cultured according to their supplier's instructions and were harvested from their cell culture flasks using Trypsin/EDTA, counted in R10 medium in a Burker chamber, and diluted in FACS buffer (PBS+0.5% BSA, 0.05% NaN₃) to a concentration of 4×10⁶ cells/mL. 50 μL (0.20×10⁶) of cell solution was added to a 96-well FACS staining plate (Falcon #351190). Cells were incubated for 20 min in 4° C. with 50 μL of the biotinylated ALG.APV-210 (2× final concentration). The antibodies were added in a serial dilution starting at 20 μg/mL titrating down in a 12 step ½ dilution down to 0.010 μg/mL. Following 2× washing with FACS buffer, cells were incubated for 30 min in 4° C. with 100 μL of a secondary antibody (streptavidin-PE, BD #554061, diluted 1/500). […] Cells were analysed for ALG.APV-210 binding using flow cytometry (FACSVerse) by gating on single cells. MFI values (secondary antibody only subtracted) from 1 out of 2 independent experiments, as well as normalized data and EC₅₀-values of pooled data from 2 experiments were determined and plotted using GraphPad Prism 7, non-linear regression log (agonist) vs. normalized response—variable slope.

T3 sequence (chain, as listed by the source limits assumed): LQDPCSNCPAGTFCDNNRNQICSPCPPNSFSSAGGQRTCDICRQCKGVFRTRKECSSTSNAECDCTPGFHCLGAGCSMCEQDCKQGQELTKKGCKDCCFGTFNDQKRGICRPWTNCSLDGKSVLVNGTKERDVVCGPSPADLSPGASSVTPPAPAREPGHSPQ

Binder | Kd [1] [nM] | koff [1] [s⁻¹] | kon [1] [M⁻¹ s⁻¹] | Kd [2] [nM] | koff [2] [s⁻¹] | kon [2] [M⁻¹ s⁻¹] | EC50 [3] [nM]
B1 | 59 | 0.033 | 550000 | 79 | 0.0012 | 15000 | –
B2 | – | – | – | – | – | – | 15
B3 | 73 | 0.027 | 370000 | 35 | 0.00072 | 21000 | –
